Results published in patent US20240368230A1, “CELL-PENETRATING PEPTIDES COMPRISING MULTIPLE 5-MER ALPHA-HELIX FRAGMENTS AND USES THEREOF” (ArtProBio Co., Ltd., priority 2023, published 2024).

B1: ZsGreen: green fluorescent protein, expressed from bacterial cells, used as a comparative example (protein)
chain: MAQSKHGLTKEMTMKYRMEGCVDGHKFVITGEGIGYPFKGKQAINLCVVEGGPLPFAEDILSAAFMYGNRVFTEYPQDIADYFKNSCPAGYTWDRSFLFEDGAVCICNADITVSVEENCMYHESKFYGVNFPADGPVMKKMTDNWEPSCEKIIPVPKQGILKGDVSMYLLLKDGGRLRCQFDTVYKAKSVPRKMPDWHFIQHKLTREDRSDAKNQKWHLTEHAIASGSALP
B2: CPP22-ZsGreen: fusion protein wherein CPP22 is fused with the ZsGreen protein (protein)
chain: GSHMASAAAQARRNAAAQARRNAAAQARRNAAAQARRNAAAQARRNAAAGSGSGSGSGPVATMAQSKHGLTKEMTMKYRMEGCVDGHKFVITGEGIGYPFKGKQAINLCVVEGGPLPFAEDILSAAFMYGNRVFTEYPQDIADYFKNSCPAGYTWDRSFLFEDGAVCICNADITVSVEENCMYHESKFYGVNFPADGPVMKKMTDNWEPSCEKIIPVPKQGILKGDVSMYLLLKDGGRLRCQFDTVYKAKSVPRKMPDWHFIQHKLTREDRSDAKNQKWHLTEHAIASGSALP
B3: CRGGDEDALKAARAIKFLYQSNPPPNPEGTRQARRNRRRRWRERQRQIHSASERIASTLGGMRM (protein)
chain: CRGGDEDALKAARAIKFLYQSNPPPNPEGTRQARRNRRRRWRERQRQIHSASERIASTLGGMRM
modifications: cyclized via intein; The peptide is circular.
notes: cyclic, oligomerization-defective Rev N-terminal domain protein made by intein-mediated cyclization

Key:
HeLa cells [1] = experiment: Flow cytometry of intracellular delivery of ZsGreen cargo; assay type: cell-based; conditions: Hela cells, 10, 20 or 50 μM, 4 hours
Experimental: Hela cells were inoculated onto a 24-well plate (10^5 cells/well) and cultured in a DMEM medium containing 10% FBS for 24 hours. After washing with PBS, the cells were treated with ZsGreen or the CPP22-ZsGreen fusion protein at 0, 10, 20 or 50 μM for 4 hours. Then, after washing the cells twice with PBS and incubating with trypsin (1 mg/mL) for 15 minutes, the peptides bound to the cell surface were removed. The cells were centrifuged at 1,200 rpm for 5 minutes, washed twice with PBS, and then suspended in a PBS buffer containing 10% non-enzymatic cell dissociation solution. The fluorescence intensity of the internalized peptide was measured using a BD LSR II flow cytometer (BD Biosciences, USA).

HeLa cells [2] = experiment: Confocal microscopy of intracellular delivery of ZsGreen cargo; assay type: cell-based; conditions: 50 μM, 30 minutes
Experimental: A DMEM medium containing 10% FBS was prepared on an 8-well Lab-Tek II chamber slide (Thermo Fisher Scientific, USA). Hela cells were dispensed in each well at a density of 10^4 cells/well and cultured for 24 hours. The cells were washed twice with PBS and then cultured for 30 minutes after replacing the medium with one containing 50 μM of the ZsGreen or the CPP22-ZsGreen fusion protein. The cells were washed with PBS, treated with DAPI, and then washed with PBS after reaction for 5 minutes (for observation of cell nuclei). Then, the stained cells were observed by confocal microscopy.

[3] = system: wild-type IIB (RRE IIB WT); experiment: EMSA with 32P-labeled wild-type IIB and mutant IIB; assay type: binding, HIV-1
Experimental: A peptide (sample) and ^32P-labeled RNA were mixed with a binding buffer (10 mM HEPES (pH 7.5), 100 mM KCl, 1 mM MgCl2, 0.5 mM EDTA, 10% glycerol and […] yeast tRNA). After serially diluting the peptide with the binding buffer, RNA (10 pM) of the same volume was added. The resulting mixture was incubated at room temperature for 30 minutes and electrophoresis was conducted at 4° C. on 10% polyacrylamide gel. The […] was visualized with FLA-7000 Phosphor Imager (GE Healthcare Life Sciences, USA) and analyzed using the Multi Gauge software.
In order to analyze the binding affinity of cRev for IIB RNA, the /Rev of Preparation Example 1 or the cRev of Preparation Example 2 was mixed with ^32P-labeled wild-type IIB and ^32P-labeled mutant IIB, respectively, and analyzed by EMSA (electrophoretic mobility shift assay). The mutation of IIB is the mutation in the G46-C74 base pairs of wild-type IIB.

IIB RNA = experiment: Fluorescence anisotropy analysis of cRev with Cy3-labeled IIB RNA; assay type: binding, HIV-1; conditions: Cy3-IIB RNA 250 nM, room temperature, pH 6.0; read-out: Kd (dissociation constant) for the interaction with IIB RNA
Experimental: IIB RRE labeled with […] Cy3 was dissolved in a binding buffer (25 mM sodium phosphate, 50 mM NaCl, pH 6.0). The peptide (sample) of various concentrations was sequentially added to 250 nM RNA. The final concentration of the peptide was 600 nM. After the mixing, the sample was incubated for 1 minute. There was 1-minute incubation time between all the steps. All the experiments were performed at room temperature. The dissociation constant (Kd) was calculated using the Origin software.
In order to analyze the function of cRev, the cRev of Preparation Example 2 was mixed with Cy3-labeled IIB RNA and then fluorescence anisotropy analysis was performed.

Row | Molecule | intracellular delivery (flow cytometry) (HeLa cells [1]) | intracellular delivery (confocal microscopy) (HeLa cells [2]) | binding affinity for wild-type IIB compared with /Rev ([3]; wild-type IIB (RRE IIB WT)) | recognition of IIB RNA (EMSA) ([3]; wild-type IIB versus mutant IIB) | Kd (IIB RNA)
1 | B1 | no intracellular delivery was observed | not delivered into the cells | – | – | –
2 | B2 | delivered to and accumulated in the cells at a significantly high level | successfully delivered into and accumulated in the cells at a significant level | – | – | –
3 | B3 | – | – | significantly higher binding affinity | specifically recognizes IIB RNA | 34 nM
